Test: yeast display, Sf9 membrane polyspecificity reagent, FACS + sequencing; frameworks hold sequencing errors
In short: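 A synthetic nanobody library was expressed on Saccharomyces cerevisiae BJ5465 by galactose induction for 36–48 hours. The library was stained for 1 hour at 4 °C with 10% biotinylated, detergent-solubilized Sf9 membrane reagent and enriched with streptavidin microbeads before FACS. Low and high (top ~1%) gates were set on anti-HA fluorescence for expression and streptavidin fluorescence for reagent binding, and each polyreactivity label reflects the gate of origin.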

| Sequence | polyreactivity (PSR sort gate) |
| --- | --- |
| QVKLVESGGGLVQAGGSIRLSCAASGSIFWYYAMGWYRQAPGKERELVATITSGGSTSYADSVKGRFTISRDNAKNTVYLQMKSLKPEDTAVYYCAAARLFTTYDWGQGTQVTVSS | low polyreactivity |
| QVQLVESGGGLVQAGVSLRLSCAASGRIFPGYAMGSDRQAPAKERELVAGITWRTARTYYADSVKGRFTISRDNAKNTVYLQMNSLKPEDTAVYYCAAVSDYEGNYWGQGTQVTVSS | high polyreactivity |
| QVQLVESGGGLVQAGGSLRLSCAASGFIFGRYTMGWSRQAPGKEGELVAAISGSDVSTYYADSVKGRFTISRDNAKNTVYLQLNSVKPEDTAVYYCAADAPWAYYEYDYWGQGTQVTVSS | low polyreactivity |
| QVQLVESGGGLVQAGGSLRLSCAASGIIFVLYTMGWYIQAPGKERELVATINWGGGNTYYADSVKGRFTISRDNAKNTVYFQMNSLKPEDTAVYYCAAAYTWYGYSQAYYYWGQGTQVTVSS | low polyreactivity |
| QVQLVESGGGLVQAGGSLRLSCAASGRIFYAYAMGWYRQAPGKERELVAAISWSGGSTYYADSVKGRFTISRDNAKNTVNLQMNSLKPEDTAVYYCNADYWGQGTQVTVSS | low polyreactivity |
| QVQLGESGGGLVQAGGSLRLSCAASGSTFYPYAIGWYRQAPGKERELVARITRGDGSTYYADSVKGRFTISRDNAKNTVYVQMNSLKPEDTAVYYCIRVEYYTVWGYDYWGQGTQVTVSS | low polyreactivity |
| QVQLVESGGGLVQAGGSLRLSCAASGFIFGRYAMGWYRQAPGKERELVAAITRSGGTTYYADSVKGRFTISRDNAKKTVYLQMYSLKPEDTAVYYCAAPRIYYTDDYWGQGTQVTVSS | high polyreactivity |
| QVQLVESGGGLVQAGGSLRLSCAASGGIFAPYAMGWYRTAPGKERELVAAISSSDGSTYYADSVKGRFTISRDNAQNTVYLHMNSLKTVDTAVYYCAADYREDYGYWGEGTQVTVSS | low polyreactivity |
| QVQHVESGGGLVQAGGSLRLSSAASGHTFHRYAMGWYRQARWKESELVAAISDSGSSSYYADSVKRRFTISRDYAKYTVYLQMNSLKPEDTALYYCAAVSGFFDQYDYWGQGTQVTVSS | low polyreactivity |
| QVQLVESGGGLVQAGGSLRLSCAASGIIFRSYAMGWYRQAPGKERELVAAITGGGTTNYADSVKGRFTISRDNAKNTVYLQMNSLKPEDTEVYYCNAGLDWFWFNEMDYWGQGTQVTVSS | low polyreactivity |
| QVQLVESGGGLVQAGGSLRLSCAASGSTFQYYAMGWYRQAPGKERELVAAISSSGGSTYYADSVKGRFTISRDYAKNTVYFQMNSQKPEDTAVYYCAKRFRRFTYTRDYWGQGTQVTVTS | high polyreactivity |
| QDQLGESGGGLVQAGGSLRLSCAASGLTFYFYAMGWYRPAPGKEREFVATISFSGGSTYYADSVKGRFTISRDNAKNTVYIQMNSLKPEDTAVYYCNAESDYYWYPYNYWGQGTQVTVSS | low polyreactivity |
| QVQLVESGGGLVQAGGSLRFSCAASGRTFQYYTMGWSRQAPGKEREFVAAIRDSGGSTYYADSVKGRFTISRDNAKNTVYLQMNSLKPEDTAVYYCAAYRPRKYDYWGQGTQVTVSS | high polyreactivity |
| QVQLVESGGGLVQAGGSLRLSCAASGFIFKRYAMGWYRQAPGKERELVAAITSGGSTHYADSVKGRFTISRDNAKNTVYFQMNSLKPEDTAVYYCASRRYKWGVRYDYWGQGTQVTVSS | high polyreactivity |
| QVQLVESGGGLVQAGGSLRLSCAASGSIFDNYAMGCYRQAPRKERELVAAINFSDGDTYYGDSVKGRFTISRDNAKNTVYLQMNSLKPEDTAVYYCAAEVWYPPEYYDEYDYWGQGTQVTVSS | low polyreactivity |
| QDQLVESGGGLVQAGGSLRLSCAASGRIFDTNAMGRYRQAPGKERELVATNTRSAGRTYYADSVKGRFTISRDNAKIKVFLQMNILKPEDTAVYFCNADWGPTYEIYDSWGQGTQVTVSS | low polyreactivity |
| QVQLVESGGGLVQAGGSLRLSCAASGSIFSYYAMGWYRQAPGKERELVADITANDGSTYYADSVKGRFTISRDNAKNTVYLQMHSLKPEVTAVYYCAAASDLYGSIWIETGVTSDYWGQGTQVTVSS | high polyreactivity |
